Test results: patent US6835378B2, “Method and compositions for inhibiting thrombin-induced coagulation” (The Texas A&M University System University, priority 2001, dated 2004)
“Also recorded” adds a separate entry of the source.

Columns and labels:
[1] = system: thrombin-induced fibrin clot formation; assay: Fg coagulation assay (fibrin clot inhibition); format: biochemical; details: 3.0 μM Fg, 0-6.0 μM protein, 1.0 NIH unit/ml thrombin, OD 405 nm
Protocol: Fg Coagulation Assay—150 μl of a 3.0 μM Fg solution was incubated with 10 μl of rSdrG(50-597) or BSA (1.0-6.0 μM) and 50 μl of thrombin (Sigma) (1.0 NIH unit/ml) in microtiter wells at room temperature. Clot formation was monitored by measuring the increase in optical density (OD) at 405 nm over time and expressed as Vmax (mOD/min). A plate reader (Thermomax microplate reader, SOFTmax software, Molecular Devices) was used to monitor OD. Using the kinetic mode with one wavelength (L1=405 nm), samples were read every 10 sec for 5 min. In this assay, 1.0 NIH unit/ml of thrombin incubated with 3.0 μM Fg produced a fibrin clot in 5 min at room temperature.
rSdrG(50-597) Inhibits Thrombin-Induced Fibrin Clot Formation—In the final stages of the blood coagulation cascade, thrombin cleaves Fg releasing the fibrinopeptides and producing fibrin monomers. These fibrin monomers then polymerize to form a fibrin clot (20). […] To test this hypothesis, we designed a fibrin clot inhibition assay in which 3.0 μM Fg, 0-6.0 μM rSdrG(50-597) and 1.0 NIH unit/ml of thrombin were incubated and the formation of a fibrin clot was monitored by measuring the increase in optical density at 405 nm.

immobilized Fg = molecular target: T1, immobilized Fg (Homo sapiens, UniProt P02675); assay: ELISA: rSdrG(50-597) binding to immobilized Fg
T1 construct: purchased Enzyme Research Labs
T1 sequence (P02675 31-491): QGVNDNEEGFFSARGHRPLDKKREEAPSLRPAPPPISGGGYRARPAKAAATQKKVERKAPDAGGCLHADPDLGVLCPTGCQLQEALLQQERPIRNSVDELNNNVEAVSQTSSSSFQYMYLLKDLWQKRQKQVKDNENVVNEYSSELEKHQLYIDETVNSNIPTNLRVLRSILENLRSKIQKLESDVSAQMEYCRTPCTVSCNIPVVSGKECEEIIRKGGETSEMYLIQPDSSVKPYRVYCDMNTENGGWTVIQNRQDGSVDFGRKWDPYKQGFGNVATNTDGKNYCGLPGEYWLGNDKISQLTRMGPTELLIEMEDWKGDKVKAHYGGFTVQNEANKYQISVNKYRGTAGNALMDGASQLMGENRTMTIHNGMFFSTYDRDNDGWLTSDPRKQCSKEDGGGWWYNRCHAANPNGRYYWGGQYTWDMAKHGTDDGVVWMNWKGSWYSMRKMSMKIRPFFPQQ
T1 sequence (P02671 20-629 partner limits assumed): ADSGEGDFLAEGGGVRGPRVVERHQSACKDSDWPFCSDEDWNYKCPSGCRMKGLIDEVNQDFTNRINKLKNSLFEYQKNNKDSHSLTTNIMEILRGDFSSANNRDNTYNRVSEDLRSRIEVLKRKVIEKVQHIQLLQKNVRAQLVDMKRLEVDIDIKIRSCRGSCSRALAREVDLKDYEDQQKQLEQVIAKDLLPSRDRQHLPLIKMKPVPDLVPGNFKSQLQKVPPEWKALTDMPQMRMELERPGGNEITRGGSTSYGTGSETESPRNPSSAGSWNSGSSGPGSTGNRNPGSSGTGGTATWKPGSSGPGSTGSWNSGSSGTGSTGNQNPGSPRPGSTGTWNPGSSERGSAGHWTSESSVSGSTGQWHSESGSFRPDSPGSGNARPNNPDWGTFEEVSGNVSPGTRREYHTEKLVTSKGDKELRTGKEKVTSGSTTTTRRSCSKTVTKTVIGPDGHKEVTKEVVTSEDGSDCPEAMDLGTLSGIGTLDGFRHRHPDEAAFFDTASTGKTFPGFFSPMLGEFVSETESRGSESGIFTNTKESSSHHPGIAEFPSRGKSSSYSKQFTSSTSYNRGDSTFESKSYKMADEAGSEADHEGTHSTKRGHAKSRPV
T1 sequence (P02679 27-433 partner limits assumed): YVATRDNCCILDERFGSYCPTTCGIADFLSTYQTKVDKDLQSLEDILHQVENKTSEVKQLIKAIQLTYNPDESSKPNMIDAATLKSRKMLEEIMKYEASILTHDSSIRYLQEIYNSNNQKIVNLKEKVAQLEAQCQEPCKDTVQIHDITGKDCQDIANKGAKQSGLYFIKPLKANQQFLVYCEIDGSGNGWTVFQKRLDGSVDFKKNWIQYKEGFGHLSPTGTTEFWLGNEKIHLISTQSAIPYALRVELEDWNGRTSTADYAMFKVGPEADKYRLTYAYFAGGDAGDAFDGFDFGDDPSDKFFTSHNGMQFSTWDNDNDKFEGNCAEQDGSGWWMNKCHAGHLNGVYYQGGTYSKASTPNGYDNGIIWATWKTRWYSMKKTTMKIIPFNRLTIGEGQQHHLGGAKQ
Protocol: ELISA—Microtiter plates (Immulon 4, Dynatech Laboratories Inc.) were coated with 1 μg of Fg (Enzyme Research Labs) in PBS, pH 7.5 for 18 h at 4° C. Plates were washed three times with PBS, 0.05% Tween 20 (PBST) and blocked with 1% (w/v) bovine serum albumin (BSA) for 1 h at room temperature. Plates were washed three times with PBST and rSdrG(50-597), diluted into PBS, was added to the wells and the plate was incubated for 1 h at room temperature. Plates were washed three times with PBST and bound rSdrG(50-597) was detected by adding a 1:2000 dilution of an anti-His-tag mAb (Clontech) in PBST, 0.1% BSA. Plates were incubated for 1 h at room temperature and then washed three times with PBST. A 1:2000 dilution of goat anti-mouse alkaline phosphatase (AP)-conjugated polyclonal antibodies (Bio-Rad) in PBST, 0.1% BSA were added to the wells and the plate was incubated for 1 h at room temperature. Plates were washed three times with PBST and developed with p-nitrophenyl phosphate (Sigma) in 1 M diethanolamine, 0.5 mM MgCl2, pH 9.0 at room temperature for ˜30 min. Plates were read at 405 nm using an ELISA plate reader (Thermomax microplate reader, Molecular Devices).

[2] = system: Serine protease-digested Fg; assay: ELISA with serine protease-treated immobilized Fg; format: binding, human; details: 30 min at room temperature
Protocol: Fg coated microtiter wells were pretreated for 30 min at room temperature with ancrod (•), PBS (untreated) (▾), thrombin (♦) or contortrixobin (▪). Plates were blocked, washed and incubated with a serine protease inhibitor (1 NIH unit/ml hirudin for thrombin and 100 μg/ml PMSF for ancrod and contortrixobin). Biotin labeled rSdrG(50-597) (25-1000 nM) was incubated in the wells for 1 h at room temperature. Values represent the mean±standard deviation of triplicate wells.
The A[…] chain may interfere with rSdrG(50-597) binding to the Bβ chain and this observation may be due to the absence of FpA, thus making the N-terminus of the Bβ chain more easily accessible.

B1: rSdrG(50-597): recombinant His-tagged A region (residues 50-597) of SdrG, a fibrinogen-binding MSCRAMM from S. epidermidis (protein)
chain: HHHHHHAEENTVQDVKDSNMDDELSDSNDQSSNEEKNDVINNSQSINTDDDNQIKKEETNSNDAIENRSKDITQSTTNVDENEATFLQKTPQDNTQLKEEVVKEPSSVESSNSSMDTAQQPSHTTINSEASIQTSDNEENSRVSDFANSKIIESNTESNKEENTIEQPNKVREDSITSQPSSYKNIDEKISNQDELLNLPINEYENKVRPLSTTSAQPSSKRVTVNQLAAEQGSNVNHLIKVTDQSITEGYDDSDGIIKAHDAENLIYDVTFEVDDKVKSGDTMTVNIDKNTVPSDLTDSFAIPKIKDNSGEIIATGTYDNTNKQITYTFTDYVDKYENIKAHLKLTSYIDKSKVPNNNTKLDVEYKTALSSVNKTITVEYQKPNENRTANLQSMFTNIDTKNHTVEQTIYINPLRYSAKETNVNISGNGDEGSTIIDDSTIIKVYKVGDNQNLPDSNRIYDYSEYEDVTNDDYAQLGNNNDVNINFGNIDSPYIIKVISKYDPNKDDYTTIQQTVTMQTTINEYTGEFRTASYDNTIAFSTSSGQGQGDLPPE
fibrin clot formation [1]: inhibited fibrin clot formation in a concentration dependent manner | fibrin clot formation ([1]; listed as SdrG): inhibit thrombin-induced fibrinogen coagulation | binding to immobilized Fg (immobilized Fg): bound immobilized Fg | binding to Fg treated with contortrixobin [2]: could not bind; also recorded: not able to bind | binding to Fg treated with thrombin [2]: could not bind | binding to Fg treated with ancrod ([2]; versus untreated Fg): bind better; also recorded: still able to bind
